{
  "source": "patent CN114395037A",
  "about": "(SHENZHEN PEOPLE HOSPITAL, dated 2022)",
  "binders": {"B1": {"name": "204纳米抗体 (VHH)", "VHH": "AVQLVESGGGLVQAGGSLRLSCVASGRPFSLYAVGWFRQAPGKAREFVAAISRSGSTTDHADSVKGRFTVSRDNDANTVSLLMSNLKPEDTAIYYCAAARSTRGYDYWGQGTQVTVSS", "notes": "Alpaca-derived nanobody from a naive phage display library, expressed in E. coli with an HA tag; not shown: fused HA tag (and a tag for Ni purification, vector PET-14B)"}},
  "molecular_target": "T1, CRT N+P结构域 (CALR N+P) (UniProt P27797 18-308)",
  "T1 construct": "range 18-308; The ELISA and SPR sections say only 'CRT蛋白' or '纯化抗原蛋白'; also called CRT蛋白; 钙网蛋白; not shown: His tag (Ni purification, anti-His WB)",
  "T1 sequence (looked up)": "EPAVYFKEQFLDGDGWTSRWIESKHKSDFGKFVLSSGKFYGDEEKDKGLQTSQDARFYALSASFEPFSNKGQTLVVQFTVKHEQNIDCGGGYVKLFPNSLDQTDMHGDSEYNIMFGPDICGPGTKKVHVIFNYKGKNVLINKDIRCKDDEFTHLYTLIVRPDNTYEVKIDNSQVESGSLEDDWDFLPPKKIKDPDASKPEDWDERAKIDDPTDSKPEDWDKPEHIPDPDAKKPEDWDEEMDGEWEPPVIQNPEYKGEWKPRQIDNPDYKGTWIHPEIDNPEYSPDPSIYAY",
  "assay": "SPR (Biacore), antigen protein immobilised on the chip, nanobody as analyte",
  "data": [
    {"binder": "B1", "values": [
      {"measurement": "Kd", "result": 530, "unit": "pM"}
    ]}
  ]
}
